Test results taken from patent US20240101640A1 (CSL BEHRING, published 2024).

B3: heme-hemopexin complex (human plasma derived hemopexin saturated with hemin) (ligand)
chain: TPLPPTSAHGNVAEGETKPDPDVTERCSDGWSFDATTLDDNGTMLFFKGEFVWKSHKWDRELISERWKNFPSPVDAAFRQGHNSVFLIKGDKVWVYPPEKKEKGYPKLLQDEFPGIPSPLDAAVECHRGECQAEGVLFFQGDREWFWDLATGTMKERSWPAVGNCSSALRWLGRYYCFQGNQFLRFDPVRGEVPPRYPRDVRDYFMPCPGRGHGHRNGTGHGNSTHHGPEYMRCSPHLVLSALTSDNHGATYAFSGTHYWRLDTSRDGWHSWPIAHQWPQGPSAVDAAFSWEEKLYLVQGTQVYVFLTKGGYTLVSGYPKRLEKEVGTPHGIILDSVDAAFICPGSSRLHIMAGRRLWWLDLKSGAQATWTELPWPHEKVDGALCMEKSLGPNSCSANGPGLYLIHGPNLYCYSDVEKLNAAKALPQPQNVTSLLGCTH
modifications: heme (hemin) bound non-covalently in a 1:1 ratio
notes: also called heme-hpx complex; heme-hx complex

How the values were obtained:
[1] = target: B3; test: BLI (Octet), LRP1.2 captured on anti-Penta-His biosensor, heme-hpx complex as analyte at 0.312-2.5 µM [LRP1.2]
Protocol: (§1) Individual LRP1 domains were immobilized on the biosensor surface. After baseline recording four concentration of heme-hpx complexes were tested (2.5, 1.25, 0.625 and 0.312 μM). For LRP1.3 the reference subtracted and processed kinetic dataset was globally fitted using a 1:1 binding model. Heme-hpx is shown in red curves, fitted curve as solid black line. LRP1.1, LRP1.2, LRP1.4 and LRP1.5 were not fitted.
(§2) As described above, anti-penta His antibody pre-coated biosensors (Cat N°: 18-5120, ForteBio, TechNote 43: Anti-Penta-HIS (HIS1K) biosensors for label-free analysis of HIS-tagged proteins, 2019) were used. The different LRP1 domains were immobilized at a concentration of 15 μg/mL in 10× kinetic buffer (PBS, 0.1% BSA, 0.02% Tween20). Heme-Hpx complex was diluted in 10× kinetic buffer (PBS, 0.1% BSA, 0.02% Tween20). The association and dissociation kinetics of heme-hemopexin complex, were performed at concentrations of 2.5, 1.25, 0.625 and 0.3125 μM. A reference control was included in every experiment (sensor loaded with ligand without analyte). Data was acquired on an OctetRED96 (FortéBio) at 30° C. with the following settings:
(§3) To investigate and determine, which of the LRP1 domains bind the heme-hpx complex, each of the domains were tethered on biosensors (HIS1K; anti-penta-His) via the expressed His-tag.

[2] = target: B3; test: BLI (Octet), LRP1.1 captured on anti-Penta-His biosensor, heme-hpx complex as analyte at 0.312-2.5 µM [LRP1.1]
Protocol: as §1, §2, §3

[3] = target: T1, HuLRP1(1-24)-FLAG-HuLRP1(2481-2942)-8His (huLRP1 soluble minireceptor, ligand binding domain III) (human, UniProt Q07954 2481-2942); test: SPR, LRP1.3 tethered on NTA chip, heme-hpx complex batch TO341022BM (“New”), 1:1 steady state fit, N = 1
T1 construct: Made in ExpiCHO-S cells; also called LRP1.3; LRP1 domain III

[4] = target: T1, HuLRP1(1-24)-FLAG-HuLRP1(2481-2942)-8His …; test: SPR, LRP1.3 tethered on NTA chip, heme-hpx complex batch TO342022B (“Aged”), 1:1 steady state fit, N = 1
Protocol: (§4) Heme-hpx complex was injected in duplicate at concentrations ranging from 0.62 to 20 μM in 2-fold dilution series over 30 seconds. The dissociation was monitored for 60 seconds. No regeneration step was required between cycles since the complex dissociated fully. Sensogram data from active surface (flow cell 4) were double referenced by subtraction of data from reference surface (flow cells 3) and blank injections. Sensogram data were fit to a 1:1 steady state model.

[5] = target: T1, HuLRP1(1-24)-FLAG-HuLRP1(2481-2942)-8His …; test: SPR, LRP1.3 tethered on NTA chip, heme-hpx complex batch T0342022C as printed, 1:1 steady state fit, N = 1
[6] = target: T1, HuLRP1(1-24)-FLAG-HuLRP1(2481-2942)-8His …; test: SPR, LRP1.3 tethered on NTA chip (capture cross link), heme-hpx (batch TO411122), 1:1 steady state fit, mean of N = 3
[7] = target: T1, HuLRP1(1-24)-FLAG-HuLRP1(2481-2942)-8His …; test: SPR, LRP1.3 tethered on NTA chip (capture cross link), heme-hpx (batch TO411122) 0.62-20 µM, 1:1 steady state fit, run 1
Protocol: as §4

[8] = target: T1, HuLRP1(1-24)-FLAG-HuLRP1(2481-2942)-8His …; test: SPR, LRP1.3 tethered on NTA chip (capture cross link), heme-hpx (batch TO411122) 0.62-20 µM, 1:1 steady state fit, run 2
Protocol: as §4
(§5) In a next step and as mentioned above an alternative assay setup was developed as illustrated in FIG. 7A.

[9] = target: T1, HuLRP1(1-24)-FLAG-HuLRP1(2481-2942)-8His …; test: SPR, LRP1.3 tethered on NTA chip (capture cross link), heme-hpx (batch TO411122) 0.62-20 µM, 1:1 steady state fit, run 3
Protocol: as §4, §5

[10] = target: T1, HuLRP1(1-24)-FLAG-HuLRP1(2481-2942)-8His …; test: BLI (OctetRED96, 30 °C), LRP1.3 captured on anti-penta-His biosensor, heme-hpx (batch TO294001) 2.5-0.312 µM, global 1:1 fit
Protocol: as §1
as §2, with “settings: […]” for “settings:”

[11] = target: T2, HuLRP1(1-24)-FLAG-HuLRP1(3293-3783)-8His (huLRP1 soluble minireceptor, ligand binding domain IV) (human, UniProt Q07954 3293-3783); test: BLI (Octet), LRP1.4 captured on anti-Penta-His biosensor, heme-hpx complex as analyte at 0.312-2.5 µM [LRP1.4]
T2 construct: also called LRP1.4; LPR1 domain IV
Protocol: as §1, §2, §3

[12] = target: T3, HuLRP1 (3332-3779)-8His (second ligand binding domain IV construct) (human, UniProt Q07954 3332-3779); test: BLI (Octet), LRP1.5 captured on anti-Penta-His biosensor, heme-hpx complex as analyte at 0.312-2.5 µM [LRP1.5]
T3 construct: Any N-terminal residues left from a signal peptide or tag are not described; also called LRP1.5; LPR1 domain IV (LRP1.5)
Protocol: as §1, §2, §3

[13] = target: T1, HuLRP1(1-24)-FLAG-HuLRP1(2481-2942)-8His …; test: SPR (Biacore), LRP1.3 tethered on NTA chip, heme-hpx complex batch TO411122 (as titled on the sheet) as analyte at 0.62-20 µM, steady state 1:1 fit
Protocol: as §4

[14] = target: T1, HuLRP1(1-24)-FLAG-HuLRP1(2481-2942)-8His …; test: SPR (Biacore), LRP1.3 tethered on NTA chip, heme-hpx complex ("new", batch TO341022BM by the legend) as analyte at 0.62-20 µM, steady state 1:1 fit
Protocol: as §4

[15] = target: T1, HuLRP1(1-24)-FLAG-HuLRP1(2481-2942)-8His …; test: SPR (Biacore), LRP1.3 tethered on NTA chip, heme-hpx complex ("aged", batch TO342022B by the legend) as analyte at 0.62-20 µM, steady state 1:1 fit
Protocol: as §4

[16] = target: T1, HuLRP1(1-24)-FLAG-HuLRP1(2481-2942)-8His …; test: SPR (Biacore, 37 °C), heme-hpx (batch TO411122) captured by anti-hemopexin polyclonal antibody on CM5, LRP1.3 0.312-20 µM as analyte, kinetic fit (not optimal)

T1 sequence (Q07954 other isoform, or with tags, fused parts or gaps): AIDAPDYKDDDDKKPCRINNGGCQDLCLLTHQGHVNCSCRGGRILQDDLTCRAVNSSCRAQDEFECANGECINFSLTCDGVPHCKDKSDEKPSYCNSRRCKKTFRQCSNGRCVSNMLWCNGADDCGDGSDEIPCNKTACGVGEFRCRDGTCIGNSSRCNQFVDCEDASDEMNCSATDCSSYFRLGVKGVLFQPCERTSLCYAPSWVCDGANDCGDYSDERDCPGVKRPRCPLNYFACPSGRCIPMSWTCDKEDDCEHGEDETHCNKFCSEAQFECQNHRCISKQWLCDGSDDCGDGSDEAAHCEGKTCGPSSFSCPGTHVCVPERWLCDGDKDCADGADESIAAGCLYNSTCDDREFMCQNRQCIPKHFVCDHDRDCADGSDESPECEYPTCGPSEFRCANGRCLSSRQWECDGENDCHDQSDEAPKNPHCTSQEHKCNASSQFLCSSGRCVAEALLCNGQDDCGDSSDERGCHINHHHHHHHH
T2 sequence (Q07954 other isoform, or with tags, fused parts or gaps): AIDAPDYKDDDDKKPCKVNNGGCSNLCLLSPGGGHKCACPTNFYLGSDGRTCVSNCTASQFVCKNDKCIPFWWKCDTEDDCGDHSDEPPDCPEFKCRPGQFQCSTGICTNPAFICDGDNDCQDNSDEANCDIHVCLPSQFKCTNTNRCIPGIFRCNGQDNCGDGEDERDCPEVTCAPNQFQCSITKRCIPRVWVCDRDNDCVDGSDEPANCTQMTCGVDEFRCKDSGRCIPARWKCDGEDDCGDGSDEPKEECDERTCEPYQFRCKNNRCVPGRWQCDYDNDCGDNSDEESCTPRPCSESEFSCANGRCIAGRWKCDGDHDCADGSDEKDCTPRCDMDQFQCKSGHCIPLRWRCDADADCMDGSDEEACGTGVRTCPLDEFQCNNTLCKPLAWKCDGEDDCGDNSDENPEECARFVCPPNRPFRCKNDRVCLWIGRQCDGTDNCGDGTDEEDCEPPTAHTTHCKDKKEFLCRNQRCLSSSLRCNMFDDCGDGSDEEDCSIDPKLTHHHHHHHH
T3 sequence (Q07954 other isoform, or with tags, fused parts or gaps): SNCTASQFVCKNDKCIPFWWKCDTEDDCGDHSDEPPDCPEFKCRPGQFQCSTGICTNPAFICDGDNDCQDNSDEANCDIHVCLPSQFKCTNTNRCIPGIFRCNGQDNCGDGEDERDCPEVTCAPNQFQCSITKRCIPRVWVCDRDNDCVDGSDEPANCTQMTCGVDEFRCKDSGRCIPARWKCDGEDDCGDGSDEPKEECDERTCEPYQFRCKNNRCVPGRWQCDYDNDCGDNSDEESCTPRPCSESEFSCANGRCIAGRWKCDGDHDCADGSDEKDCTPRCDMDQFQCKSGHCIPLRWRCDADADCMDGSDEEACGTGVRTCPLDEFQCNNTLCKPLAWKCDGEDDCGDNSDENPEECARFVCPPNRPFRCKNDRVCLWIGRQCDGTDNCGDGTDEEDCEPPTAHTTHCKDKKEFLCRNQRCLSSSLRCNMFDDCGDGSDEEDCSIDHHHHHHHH

B1: HuLRP1(1-24)-FLAG-HuLRP1(806-1183)-8His (huLRP1 soluble minireceptor, ligand binding domain II) (receptor)
chain: AIDAPDYKDDDDKKKCRVNNGGCSSLCLATPGSRQCACAEDQVLDADGVTCLANPSYVPPPQCQPGEFACANSRCIQERWKCDGDNDCLDNSDEAPALCHQHTCPSDRFKCENNRCIPNRWLCDGDNDCGNSEDESNATCSARTCPPNQFSCASGRCIPISWTCDLDDDCGDRSDESASCAYPTCFPLTQFTCNNGRCININWRCDNDNDCGDNSDEAGCSHSCSSTQFKCNSGRCIPEHWTCDGDNDCGDYSDETHANCTNQATRPPGGCHTDEFQCRLDGLCIPLRWRCDGDTDCMDSSDEKSCEGVTHVCDPSVKFGCKDSARCISKAWVCDGDNDCEDNSDEENCESLACRPPSHPCANNTSVCLPPDKLCDGNDDCGDGSDEGELCDHHHHHHHH
notes: also called LRP1.2; LPR1 domain II
binding result [1]: no binding (tested: 2.5 µM heme-hpx complex)

B2: HuLRP1(1-24)-FLAG-HuLRP1(25-113)-8His (huLRP1 soluble minireceptor, ligand binding domain I) (receptor)
chain: AIDAPDYKDDDDKKKTCSPKQFACRDQITCISKGWRCDGERDCPDGSDEAPEICPQSKAQRCQPNEHNCLGTELCVPMSRLCNGVQDCMDGSDEGPHCRELQGHHHHHHHH
notes: also called LPR1 domain I; LRP1 domain 1
binding result [2]: no binding (tested: 2.5 µM heme-hpx complex)

Binder: B3
Kd [3]: 1.41 µM | Kd [4]: 1.35 µM | Kd [5]: 1.34 µM | Kd [6]: 2.62 µM | Kd [7]: 2.62 µM | Kd [8]: 2.61 µM | Kd [9]: 2.63 µM | Kd [10]: 1.46 µM | koff [10]: 0.0555 s⁻¹ | kon [10]: 37900 M⁻¹ s⁻¹ | binding result [11]: no binding (tested: 2.5 µM heme-hpx complex) | binding result [12]: no binding (tested: 2.5 µM heme-hpx complex) | Kd [13]: 1.4 µM | Kd [14]: 1.4 µM | Kd [15]: 1.4 µM | Kd [16]: ~2 µM
